This is an account of results in PMC3257273, “Crystal Structure of a Human Single Domain Antibody Dimer Formed through VH-VH Non-Covalent Interactions” (PLoS ONE, 2012).

For the experiment, the target named is T1, human HER2 (ErbB2)/Fc chimera (Homo sapiens, UniProt P04626).
T1 construct: human epidermal growth factor receptor-2 (HER2, ErbB2), the part present in the bought HER2 (ErbB2)/Fc chimera; also called HER2/Fc; human epidermal growth factor receptor-2; source: bought: R&D Systems
The experiment in a line: SPR; Biacore 3000; HER2 amine-coupled on CM5 chip (ovalbumin as reference surface); sdAb injected at 5 to 600 nM, 40 uL/min; room temperature; HBS-EP (10 mM HEPES pH 7.4, 150 mM NaCl, 3 mM EDTA, 0.005% P20); 1:1 Langmuir model. To be noted: both partners purified.

B1: Gr3 (VHH)
VHH: QVQLVESGGGLIKPGGSLRLSCAASGFTVSYESMGWVRQAPGKGLEWVSAISSSGGSTYYADSVKGRFTISRDNSKNTVYLQMNSLRAEDTAVYYCVTPERQCKQSTCYARPRYWGQGTMVTVSS
notes: differs from Gr6 only in CDR1 and CDR3; selected from a synthetic human VH phage display library; Single-domain antibody from a human VH, not a camelid VHH; the vector may add further C-terminal residues besides the His tag; also called anti-HER2 sdAb Gr3; human VH single-domain antibody; source: E. coli periplasm, purified (IMAC, Ni-NTA / HiTrap chelating HP)
The molecule B1 registered a Kd of 68 nM, an off-rate (koff) of 0.02 s⁻¹ and a kon of 290000 M⁻¹ s⁻¹.
